The subject of one assay is superoxide. The assay is described as follows: ROS generation: superoxide measured by decrease of DHE fluorescence. Type of assay: biochemical. On the procedure: A ROS-generating effect of the RLuc8.6-KR protein was confirmed using 100 μL of buffer (50 mM HEPES-KOH, 24° C., pH 7.4) containing RLuc8.6-KR protein (final concentration: 10 μM), dihydroethidium (DHE, Sigma Aldrich, USA; final concentration of 100 μM) whose fluorescence intensity decreases in the presence of superoxide and a Co-h substrate solution. The rate of decrease in fluorescence intensity was measured at the excitation wavelength of 370 nm and the emission wavelength of 420 nm of DHE using a plate reader.
A ROS-generating effect of RLuc8.6-KR protein was measured using RLuc8.6-KR protein (final concentration: 10 μM) and DHE (final concentration: 100 μM) whose fluorescence intensity decreases in the presence of superoxide, and
Here, the active oxygen generation rate of each protein was measured using 100 μL of buffer (50 mM HEPES-KOH, 24° C., pH 7.4) containing FMN (final concentration: 150 μM) and a Co-h substrate solution (final concentration: 150 μM).
The rate of decrease in fluorescence intensity was measured at the excitation wavelength of 370 nm and the emission wavelength of 420 nm of DHE using a plate reader. In addition, the rate of decrease in fluorescence intensity was measured at the excitation wavelength of 380 nm and the emission wavelength of 430 nm of ADPA using a plate reader.
A ROS generation rate was measured using 100 μL of buffer (50 mM HEPES-KOH, 24° C., pH 7.4) containing the KR protein, RLuc8.6-KR protein (final concentration: 10 μM) and DHE (final concentration: 100 μM) whose fluorescence intensity decreases in the presence of superoxide.
A ROS generation rate was measured using 100 μL of buffer (50 mM HEPES-KOH, 24° C., pH 7.4) containing MS, RLuc8-MS (final concentration: 10 μM), DHE (final concentration: 100 μM) whose fluorescence intensity decreases in the presence of superoxide and FMN (final concentration: 150 μM).
After irradiation with light (referred to as +LED Light) at 10 mW/cm^2 for 30 minutes, the rate of decrease in fluorescence intensity was measured at the excitation wavelength of 370 nm and the emission wavelength of 420 nm of DHE using a plate reader.
A ROS generation rate was measured using 100 μL of buffer (50 mM HEPES-KOH, 24° C., pH 7.4) containing the KR protein, RLuc8.6-KR protein (final concentration: 10 μM), DHE (final concentration: 100 μM) whose fluorescence intensity decreases in the presence of superoxide and a Co-h substrate solution (final concentration: 150 μM).
A ROS generation rate was measured using 100 μL of buffer (50 mM HEPES-KOH, 24° C., pH 7.4) containing MS, RLuc8-MS (final concentration: 10 μM), DHE (final concentration: 100 μM) whose fluorescence intensity decreases in the presence of superoxide, FMN (final concentration: 150 μM) and a Co-h substrate solution (final concentration: 150 μM). The rate of decreasing fluorescence intensity was measured at an excitation wavelength of 370 nm and an emission wavelength of 420 nm of DHE using a plate reader.
A ROS generation rate was measured by reaction of 100 μL of buffer (50 mM HEPES-KOH, 24° C., pH 7.4) containing RLuc8.6-KR protein (final concentration: 10 μM), DHE (final concentration: 100 μM) whose fluorescence intensity decreases in the presence of superoxide, ROS scavenger (SOD (superoxide scavenger, final concentration 800U/ml), sodium azide (Singlet oxygen scavenger; final concentration: 100 mM) and D-mannitol (hydroxyl radical scavenger; final concentration: 100 mM), respectively) for 30 minutes. […]

A further assay deals with BT-474. The assay is described as follows: Cell death with Co-h substrate by cell type (SYTOX Green or EthD-1/DAPI). Type of assay: cell-based, human. The conditions noted are these: BT-474, protein 10 μM, Co-h 150 μM for 5 minutes. On the procedure:
(§1) The cells were seeded at 5×10^5 cells/mL in 96-well plates (SPL Cell Culture Plate, 96 well (SPL, Cat #30096)), and cultured at 37° C. for 24 hours (overnight). After the culture for 24 hours, the cells were washed with FBS & phenol red-free media, and 100 μL of FBS & phenol red-free media containing a purified protein (final concentration: 10 μM) was added, followed by reaction at 37° C. for 24 hours.
(§2) Subsequently, the cells were washed with FBS & phenol red-free media, and 100 μL of FBS & phenol red-free media was added. 100 μL of FBS & Phenol red-free media (RPMI) containing a Co-h substrate solution (final concentration: 150 μM) was added, followed by reaction at 37° C. for 5 minutes.
(§3) After the reaction, 50 μL of SYTOX Green (final concentration: 261 nM) or 90 μL of ethidium homodimer (EthD-1) (final concentration 1×), which stains DNA of dead cells, was added, followed by reaction at 37° C. for 30 minutes. 10 μL of DAPI staining DNA of live cells was added, followed by reaction for 5 minutes. Cell death was confirmed by observing KillerRed, SYTOX Green, MiniSOG, EthD-1 and DAPI fluorescence using a confocal microscope.

Another assay deals with MCF-10A. The description is as above. Type of assay: cell-based, human. The conditions noted are these: protein 10 μM, Co-h 150 μM for 5 minutes. On the procedure:
as §1, §2, §3

The test system of the next assay is SK-BR-3. The description is as above. Type of assay: cell-based, human. The conditions noted are these: SK-BR-3, protein 10 μM, Co-h 150 μM for 5 minutes. On the procedure: as §1, §2, §3

B1: KR: first protein KillerRed, ROS-generating protein (superoxide), expressed from pRSET-KillerRed, 31 kDa (protein)
chain: MRGSHHHHHHGMASMTGGQQMGRDLYDDDDKDPMLCCMRRTKQVEKNDEDQKISEGGPALFQSDMTFKIFIDGEVNGQKFTIVADGSSKFPHGDFNVHAVCETGKLPMSWKPICHLIQYGEPFFARYPDGISHFAQECFPEGLSIDRTVRFENDGTMTSHHTYELDDTCVVSRITVNCDGFQPDGPIMRDQLVDILPNETHMFPHGPNAVRQLAFIGFTTADGGLMMGHFDSKMTFNGSRAIEIPGPHFVTIITKQMRDTSDKRDHVCQREVAYAHSVPRITSAIGSDED
modifications: pRSET-KillerRed
notes: first protein KillerRed, ROS-generating protein (superoxide), expressed from pRSET-KillerRed, 31 kDa
Regarding B1, in the assay on superoxide (10 mW/cm^2, 30 minutes, no substrate, protein 10 μM, DHE), the “superoxide generation rate after light irradiation” value is recorded as “higher superoxide generation rate”. In the assay with superoxide (RLuc8.6-KR 10 μM, Co-h 150 μM 30 minutes, SOD 800 U/ml, sodium azide 100 mM or D-mannitol 100 mM), the “superoxide generation rate by Co-h reaction after ROS scavenger treatment” value is reported as “lowest when SOD was treated”.

B2: RLuc8.6-KR: fusion protein of RLuc8.6 and KillerRed without lead peptide, 69 kDa (protein)
chain: MRGSHHHHHHGMASMTGGQQMGRDLYDDDDKDPMASKVYDPEQRKRMITGPQWWARCKQMNVLDSFINYYDSEKHAENAVIFLHGNATSSYLWRHVVPHIEPVARCIIPDLIGMGKSGKSGNGSYRLLDHYKYLTAWFELLNLPKKIIFVGHDWGSALAFHYAYEHQDRIKAIVHMESVVDVIESWMGWPDIEEELALIKSEEGEKMVLENNFFVETLLPSKIMRKLEPEEFAAYLEPFKEKGEVRRPTLSWPREIPLVKGGKPDVVQIVRNYNAYLRASDDLPKLFIESDPGFFYNAIVEGAKKFPNTEFVKVKGLHFLQEDAPDEMGKYIKSFVERVLKNEQEFGGGMLCCMRRTKQVEKNDEDQKISEGGPALFQSDMTFKIFIDGEVNGQKFTIVADGSSKFPHGDFNVHAVCETGKLPMSWKPICHLIQYGEPFFARYPDGISHFAQECFPEGLSIDRTVRFENDGTMTSHHTYELDDTCVVSRITVNCDGFQPDGPIMRDQLVDILPNETHMFPHGPNAVRQLAFIGFTTADGGLMMGHFDSKMTFNGSRAIEIPGPHFVTIITKQMRDTSDKRDHVCQREVAYAHSVPRITSAIGSDED
modifications: pRSET-RLuc8.6-KillerRed
In the case of B2, the “cell death with Co-h substrate” value in the assay with BT-474, in the assay on MCF-10A and in the assay with SK-BR-3 was “none of the six breast cancer cell lines were killed” each time. For the same molecule, in the assay with superoxide (Co-h 150 μM, 30-min reaction, without light irradiation, protein 10 μM, DHE), the “superoxide generation rate after Co-h substrate reaction” value is on record as “highest superoxide generation rate”. In the assay with superoxide (protein 10 μM, Co-h 150 μM, DHE), the “reaction time with Co-h until which the superoxide generation rate increased, then constantly maintained” value amounted to 30 min. In addition, the “Co-h concentration until which the superoxide generation rate increased, then constantly maintained” value with superoxide (protein 10 μM, DHE 100 μM, substrate reaction time 5 minutes) was found to be 150 µM.

(Values after US20220040304A1, “A COMPOSITION FOR CANCER CELL DEATH AND ITS USE” (Industry-University Cooperation Foundation Hanyang …, priority 2018, published 2022).)
